In US11814663B2, “Microorganisms with improved 1,3-propanediol and butyric acid production” (METABOLIC EXPLORER, priority 2018, dated 2023):

Columns and labels:
Type in all cases: biochemical, Clostridium acetobutylicum ATCC824
[1] = substrate: OCC(O)CO; assay: Glycerol kinase activity towards glycerol (ADP appearance coupled to NADH oxidation), wild type; conditions: other: GlpK wt, pH 9, 30° C., 2 mM ATP, 0.01-50 mM glycerol
Description: (§1) Three different point mutations were identified in glpK gene in the clone PD0557Vc05 leading to the mutant protein GlpK* with H22Y, A347T and V466M (table 2 above). In order to better characterize the effect of the mutations, we tested them individually or in combination. Therefore, the alleles coding for the mutated glycerol kinase were cloned into the expression plasmid pPAL7 (Biorad®) and the plasmids obtained were transformed into E. coli strain BL21(DE3) star to purify each mutated protein and perform biochemical experiments.
(§2) Cultures of the seven strains 1 to 7 for the overproduction of the proteins were realized in a 2 L Erlenmeyer flask, using LB broth (Bertani, 1951) that was supplemented with 5 g/L glucose and 100 mg/L of ampicillin. An overnight culture was used to inoculate a 500 mL culture to an OD600 nm of about 0.15. The culture was first kept on a shaker at 37° C. and 200 rpm until OD600 nm was about 0.5 and then the culture was moved on a second shaker at 25° C. and 200 rpm until OD600 nm was 0.6-0.8 (about one hour), before induction with 500 μM IPTG. The culture was kept at 25° C. and 200 rpm until OD600 nm was around 4, and then it was stopped. Cells were centrifuged at 7000 rpm, 5 minutes at 4° C., and then stored at −20° C. This protocol was the same for strains 1 to 7.
(§3) For each strain, about 250 mg of E. coli biomass was suspended in 40 ml of 100 mM potassium phosphate pH 7.6, and a protease inhibitor cocktail. The cells suspension (15 ml per conical tube) was sonicated on ice (Bandelin sonoplus, 70 w) in a 50 ml conical tube during 8 cycles of 30 sec with 30 sec intervals. After sonication, cells were incubated for 30 min at room temperature with 5 mM MgCl2 and 1 UI/ml of DNaseI. Cells debris were removed by centrifugation at 12000 g for 30 min at 4° C.
(§4) The proteins were purified from the crude cell-extract by affinity on a Profinity column (BIORAD, Bio-Scale Mini Profinity exact cartridge 5 ml) according to the protocol recommended by the manufacturer. The crude extract was loaded on a 5 ml Profinity exact cartridge equilibrated with 100 mM potassium phosphate pH 7.6. […] Protein concentration was measured using the Bradford protein assay.
(§5) Determination of kinetic parameters of GlpK wild type and mutants Glycerol kinase activity (GLPK) that catalyses the following reaction: Glycerol+ATP=>Glycerol-3-Phosphate+ADP, was determined by measuring the ADP appearance by enzymatic coupling to NADH oxidation. […] The oxidation of NADH was monitored at 30° C. by absorbance at 340 nm on a spectrophotometer (λ340=6290 M^−1 cm^−1).
(§6) One unit of enzyme activity was defined as the amount of enzyme catalyzing the decrease of 1 μmol of NADH per min. Kinetic parameters were determined with Sigmaplot by fitting to the Michaelis-Menten equation.

[2] = substrate: OCC(O)CO; assay: Glycerol kinase activity towards glycerol (ADP appearance coupled to NADH oxidation), A347T/V466M; conditions: other: GlpK* (A347T/V466M), pH 9, 30° C., 2 mM ATP, 0.01-50 mM glycerol
Description: as §1, §2, §3, §4, §5, §6

[3] = substrate: OCC(O)CO; assay: Glycerol kinase activity towards glycerol (ADP appearance coupled to NADH oxidation), A347T; conditions: other: GlpK* A347T, pH 9, 30° C., 2 mM ATP, 0.01-50 mM glycerol
Description: as §1, §2, §3, §4, §5, §6

[4] = substrate: OCC(O)CO; assay: Glycerol kinase activity towards glycerol (ADP appearance coupled to NADH oxidation), H22Y/A347T; conditions: other: GlpK* (H22Y/A347T), pH 9, 30° C., 2 mM ATP, 0.01-50 mM glycerol
Description: as §1, §2, §3, §4, §5, §6

[5] = substrate: OCC(O)CO; assay: Glycerol kinase activity towards glycerol (ADP appearance coupled to NADH oxidation), H22Y; conditions: other: GlpK* H22Y, pH 9, 30° C., 2 mM ATP, 0.01-50 mM glycerol
Description: as §1, §2, §3, §4, §5, §6

[6] = substrate: OCC(O)CO; assay: Glycerol kinase activity towards glycerol (ADP appearance coupled to NADH oxidation), V466M; conditions: other: GlpK* V466M, pH 9, 30° C., 2 mM ATP, 0.01-50 mM glycerol
Description: as §1, §2, §3, §4, §5, §6

B1: Clostridium acetobutylicum glycerol kinase GlpK wt (glpK, CA_C1321, Uniprot Q97JG4), SEQ ID NO: 1 (Clostridium acetobutylicum ATCC 824) (protein)
chain: MKKYIIALDQGTTSSRAIIFDHEQNILEISQKEFTQIYPSKGWVEHNPLEIWSSQYGVLQEVMAKANITQENIAAIGITNQRETTIVWDKNTGEPVYNAIVWQCRRTADIVEGLKRDKEFSDYVKENTGLILDAYFSATKIKWILDNVEGAREKAEKGELLFGTVDTWLVWKLTNGKVHVTDYTNASRTMLYNIKELKWDERILRKLNIPRSMLPEVKNSSEVYGYTNLGGKGGIRVPIAGMAGDQQCALFGQTCFEEGSVKNTYGTGCFLLMNTGENIIQSKNGLVTTIAIGLEGKVQYALEGSVFVGGAVIQWIRDELKLVSDAADTEYFAKKVNDNGGVYVVPAFTGLGAPYWDMYARGAIFGLTRGANKNHIIRAALEAIAYQSRDLIDAMKEDSGCEITRIKVDGGASRNNLLMQFQADITGTEVVRPIITETTALGAAYLAGLAVGFWKSKEEIAEKWSVSEVYTPNLDEDEKIRLYNGWKRAVERVQGWEE
notes: GlpK wt; Q97JG4; made in house; host or cells: E. coli BL21(DE3) star
Work on B1 yielded a Km [1] of 54 ± 1 µM, a Vmax [1] of 87734 ± 499 nmol/min/mg and a kcat [1] of 82.22 ± 0.467 s⁻¹. For the same protein, the kcat/Km [1] was 1.52e+06 ± 53000 M⁻¹ s⁻¹.

B2: Clostridium acetobutylicum glycerol kinase GlpK variant GlpK*(A347T/V466M), SEQ ID NO: 11 (Clostridium acetobutylicum ATCC 824; A347T/V466M) (protein)
chain: MKKYIIALDQGTTSSRAIIFDHEQNILEISQKEFTQIYPSKGWVEHNPLEIWSSQYGVLQEVMAKANITQENIAAIGITNQRETTIVWDKNTGEPVYNAIVWQCRRTADIVEGLKRDKEFSDYVKENTGLILDAYFSATKIKWILDNVEGAREKAEKGELLFGTVDTWLVWKLTNGKVHVTDYTNASRTMLYNIKELKWDERILRKLNIPRSMLPEVKNSSEVYGYTNLGGKGGIRVPIAGMAGDQQCALFGQTCFEEGSVKNTYGTGCFLLMNTGENIIQSKNGLVTTIAIGLEGKVQYALEGSVFVGGAVIQWIRDELKLVSDAADTEYFAKKVNDNGGVYVVPTFTGLGAPYWDMYARGAIFGLTRGANKNHIIRAALEAIAYQSRDLIDAMKEDSGCEITRIKVDGGASRNNLLMQFQADITGTEVVRPIITETTALGAAYLAGLAVGFWKSKEEIAEKWSMSEVYTPNLDEDEKIRLYNGWKRAVERVQGWEE
notes: GlpK*(A347T/); made in house; host or cells: E. coli BL21(DE3) star
B2 was tested, and the Km [2] was 480 ± 48 µM, the Vmax [2] was 6267 ± 175 nmol/min/mg and the kcat [2] was 5.873 ± 0.163 s⁻¹. For the same protein, the kcat/Km [2] was 12310 ± 1600 M⁻¹ s⁻¹.

B3: Clostridium acetobutylicum glycerol kinase GlpK variant GlpK*(A347T), SEQ ID NO: 3 (Clostridium acetobutylicum ATCC 824; A347T) (protein)
chain: MKKYIIALDQGTTSSRAIIFDHEQNILEISQKEFTQIYPSKGWVEHNPLEIWSSQYGVLQEVMAKANITQENIAAIGITNQRETTIVWDKNTGEPVYNAIVWQCRRTADIVEGLKRDKEFSDYVKENTGLILDAYFSATKIKWILDNVEGAREKAEKGELLFGTVDTWLVWKLTNGKVHVTDYTNASRTMLYNIKELKWDERILRKLNIPRSMLPEVKNSSEVYGYTNLGGKGGIRVPIAGMAGDQQCALFGQTCFEEGSVKNTYGTGCFLLMNTGENIIQSKNGLVTTIAIGLEGKVQYALEGSVFVGGAVIQWIRDELKLVSDAADTEYFAKKVNDNGGVYVVPTFTGLGAPYWDMYARGAIFGLTRGANKNHIIRAALEAIAYQSRDLIDAMKEDSGCEITRIKVDGGASRNNLLMQFQADITGTEVVRPIITETTALGAAYLAGLAVGFWKSKEEIAEKWSVSEVYTPNLDEDEKIRLYNGWKRAVERVQGWEE
notes: GlpK*(A347T); made in house; host or cells: E. coli BL21(DE3) star
In the case of B3, the Km [3] is reported as 260 ± 31 µM, the Vmax [3] is reported as 6977 ± 155 nmol/min/mg and the kcat [3] is reported as 6.538 ± 0.145 s⁻¹. For the same protein, the kcat/Km [3] was 24900 ± 3500 M⁻¹ s⁻¹.

B4: Clostridium acetobutylicum glycerol kinase GlpK variant GlpK*(H22Y/A347T), SEQ ID NO: 9 (Clostridium acetobutylicum ATCC 824; A347T/H22Y) (protein)
chain: MKKYIIALDQGTTSSRAIIFDYEQNILEISQKEFTQIYPSKGWVEHNPLEIWSSQYGVLQEVMAKANITQENIAAIGITNQRETTIVWDKNTGEPVYNAIVWQCRRTADIVEGLKRDKEFSDYVKENTGLILDAYFSATKIKWILDNVEGAREKAEKGELLFGTVDTWLVWKLTNGKVHVTDYTNASRTMLYNIKELKWDERILRKLNIPRSMLPEVKNSSEVYGYTNLGGKGGIRVPIAGMAGDQQCALFGQTCFEEGSVKNTYGTGCFLLMNTGENIIQSKNGLVTTIAIGLEGKVQYALEGSVFVGGAVIQWIRDELKLVSDAADTEYFAKKVNDNGGVYVVPTFTGLGAPYWDMYARGAIFGLTRGANKNHIIRAALEAIAYQSRDLIDAMKEDSGCEITRIKVDGGASRNNLLMQFQADITGTEVVRPIITETTALGAAYLAGLAVGFWKSKEEIAEKWSVSEVYTPNLDEDEKIRLYNGWKRAVERVQGWEE
notes: GlpK*(H22Y/); made in house; host or cells: E. coli BL21(DE3) star
B4 was tested, and the Km [4] was 620 ± 50 µM, the Vmax [4] was 9784 ± 195 nmol/min/mg and the kcat [4] was 9.08 ± 0.183 s⁻¹. It also gave a kcat/Km [4] of 14700 ± 1500 M⁻¹ s⁻¹.

B5: Clostridium acetobutylicum glycerol kinase GlpK variant GlpK*(H22Y), SEQ ID NO: 5 (Clostridium acetobutylicum ATCC 824; H22Y) (protein)
chain: MKKYIIALDQGTTSSRAIIFDYEQNILEISQKEFTQIYPSKGWVEHNPLEIWSSQYGVLQEVMAKANITQENIAAIGITNQRETTIVWDKNTGEPVYNAIVWQCRRTADIVEGLKRDKEFSDYVKENTGLILDAYFSATKIKWILDNVEGAREKAEKGELLFGTVDTWLVWKLTNGKVHVTDYTNASRTMLYNIKELKWDERILRKLNIPRSMLPEVKNSSEVYGYTNLGGKGGIRVPIAGMAGDQQCALFGQTCFEEGSVKNTYGTGCFLLMNTGENIIQSKNGLVTTIAIGLEGKVQYALEGSVFVGGAVIQWIRDELKLVSDAADTEYFAKKVNDNGGVYVVPAFTGLGAPYWDMYARGAIFGLTRGANKNHIIRAALEAIAYQSRDLIDAMKEDSGCEITRIKVDGGASRNNLLMQFQADITGTEVVRPIITETTALGAAYLAGLAVGFWKSKEEIAEKWSVSEVYTPNLDEDEKIRLYNGWKRAVERVQGWEE
notes: GlpK*(H22Y); made in house; host or cells: E. coli BL21(DE3) star
B5 was tested, and the Km [5] was 70 ± 4 µM, the Vmax [5] was 91725 ± 1186 nmol/min/mg and the kcat [5] was 85.97 ± 1.12 s⁻¹. The kcat/Km [5] was 1.229e+06 ± 93000 M⁻¹ s⁻¹.

B6: Clostridium acetobutylicum glycerol kinase GlpK variant GlpK*(V466M), SEQ ID NO: 7 (Clostridium acetobutylicum ATCC 824; V466M) (protein)
chain: MKKYIIALDQGTTSSRAIIFDHEQNILEISQKEFTQIYPSKGWVEHNPLEIWSSQYGVLQEVMAKANITQENIAAIGITNQRETTIVWDKNTGEPVYNAIVWQCRRTADIVEGLKRDKEFSDYVKENTGLILDAYFSATKIKWILDNVEGAREKAEKGELLFGTVDTWLVWKLTNGKVHVTDYTNASRTMLYNIKELKWDERILRKLNIPRSMLPEVKNSSEVYGYTNLGGKGGIRVPIAGMAGDQQCALFGQTCFEEGSVKNTYGTGCFLLMNTGENIIQSKNGLVTTIAIGLEGKVQYALEGSVFVGGAVIQWIRDELKLVSDAADTEYFAKKVNDNGGVYVVPAFTGLGAPYWDMYARGAIFGLTRGANKNHIIRAALEAIAYQSRDLIDAMKEDSGCEITRIKVDGGASRNNLLMQFQADITGTEVVRPIITETTALGAAYLAGLAVGFWKSKEEIAEKWSMSEVYTPNLDEDEKIRLYNGWKRAVERVQGWEE
notes: GlpK*(V466M); made in house; host or cells: E. coli BL21(DE3) star
Work on B6 yielded a Km [6] of 58 ± 3 µM, a Vmax [6] of 60399 ± 537 nmol/min/mg and a kcat [6] of 56.6 ± 0.5 s⁻¹. The kcat/Km [6] was 973000 ± 52000 M⁻¹ s⁻¹.
